The record followed here is the nanobody polyreactivity screen of Harvey et al. (2022).

A short description of the data set: yeast display, Sf9 membrane polyspecificity reagent, FACS + sequencing; frameworks hold sequencing errors. The method in brief: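 After 36–48 hours of galactose induction, yeast (Saccharomyces cerevisiae BJ5465) displaying a synthetic nanobody library were stained at 4 °C for 1 hour with 10% biotinylated, detergent-solubilized Sf9 membrane reagent. Streptavidin microbeads enriched the stained cells before FACS sorting into low and high (top ~1%) gates on anti-HA and streptavidin fluorescence. Each clone's polyreactivity label reflects its gate of origin.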
For the sequence “QVQLVESGGGLVQAGGSLRLSCAASRIIFTHNAMGWYRQAPGKERELVAAISWSGGSTYYADSVNGRFTISRDNAKNTVYIEMNSLKPEDTAVYYCAAPYFTYGQDDDDYWGQGTQVTVSS”, the “polyreactivity (PSR sort gate)” value is “low polyreactivity”. As for “QVQLVESGGGLVQAGGSLRLSCAASRRIFWSNAMGWYRQEPGKERELVAAISRRGGRTYYADSVKGRFTISLDNAKNSVYLQMNSLKPEDTAVYYCAADGTADYDYWGQGTQVTVSS”, the “polyreactivity (PSR sort gate)” value was “high polyreactivity”. As for “QVQLVESGGGLVQAGGSLRLSCAASRRTSRYYAMGWYRQAPGKETEFVAAINFSGGRTYYADSVKGRFTISRDNAKNSVYLQMNSLKPEDTAVYYCATQDYRYRYSRFGYWGQGTLVTVSS”, the “polyreactivity (PSR sort gate)” value is reported as “high polyreactivity”. Then “QVQLVESGGGLVQAGGSLRLSCAASRSIFSIYAMGWYRQAPGKERELVAAITWGGGSTYYADSVKGRFTISRDNAKNTVYLQMNSLKPEDTALYYCAADSLTWYGTYYYWGQGTQVTVSS”, with “high polyreactivity”. Then “QVQLVESGGGLVQAGGSLRLSCAASVFIFGLYAMGWYRQAPGKERELVAAISRSGGSTYYADSVKGRFTISRDNEKNTVYLQMNSLKPEDTAVYYCAKRASPRQAGPIYDSWGQGTQVTVSS”, with “high polyreactivity”. Turning to “QVQLVESGGGLVQAGGSLRLSCAASVFTVYGMGWYRQAPGKERELVAAISTGGNTYYADSVKGRFTISRDNAKNTVYLQMNSLKPEDTAVYYCNRRYRYYGLWYGYWGQGTQVTVSS”, the “polyreactivity (PSR sort gate)” value is listed as “high polyreactivity”. For “QVQLVESGGGLVQAGGSLRLSCAASVGTFSPNTMGWYRQAPGKERELVAAISSSGSTSYADSVKGRFTISRDNAKNTVYLQMNSLKPEDTAGYFCNADDTISYYASGFDNYDYWGQGTQVTVSS” the value was “low polyreactivity”; for “QVQLVESGGGLVQAGGSLRLSCAASVGWYRQAPGKERELVAAISFSGGSTYYADSVKGRFTISRDNAKNTVYLQMNSLKPEDTAVYYCAAENFWQTKEYDYWGQGTQVTVSS”, “low polyreactivity”.

As to “QVQLVESGGGLVQAGGSLRLSCAASVLILYYYAMGWYRQAPGKERELVAAISRRDGDTYYADSVKGRFTISRDNAKNTVYLQMNSLKPEDTAVYYCAADRRWSWVFRDDYWGQGTQVTVSS”, the “polyreactivity (PSR sort gate)” value was “low polyreactivity”.

With “QVQLVESGGGLVQAGGSLRLSCAASVRIFDYNAMGWYRQAPGKERELVAAITSGGSTNYADSVKGRFTISRDNAKNTVYLQMNSLKPEDTAVYYCNAEPETTIDYWGQGTQVTVSS”, the “polyreactivity (PSR sort gate)” value is reported as “low polyreactivity”. Then “QVQLVESGGGLVQAGGSLRLSCAASVRIFWPYAMGWYRQAPGKERELVAAITLSGGSTYYADSVKGRFTISRDNAKNTVYLQKNCMKPVETAVYYSAGDHKRTWGGDQGKSHGYWGQGTKVTVSS”, with “low polyreactivity”; and “QVQLVESGGGLVQAGGSLRLSCAASVRISESNDMGWYRQAPGKERELVAAISSSGGSTYYADSVKGRFTISRENAKNTVYLQMNSLKPEDTAVYYCNAVYYRTVLKIGVYEYDFWGQGTQVTVSW”, with “low polyreactivity”. As for “QVQLVESGGGLVQAGGSLRLSCAASVRTFYIYAMGWYIQAHGKERELVAAITSVGSTNYADSVKGRFTISRDNAKNTVNLQMNSLKPEDTAVYYCAAESTEGTSGDYDYWGQGTQVTVSS”, the “polyreactivity (PSR sort gate)” value is “low polyreactivity”.

Consider “QVQLVESGGGLVQAGGSLRLSCAASVRTLPSYAMGWYRQAPGKERELVAAISQSGGSTYYADSVKGRFTISRDNAKNTVYLQMNSLKPEDTAVYYCNAGYYYKYSPRRFDYWGQGTQVTVSS”, for which the “polyreactivity (PSR sort gate)” value is listed as “high polyreactivity”.

For “QVQLVESGGGLVQAGGSLRLSCAASVRTSRLYAMGWYRQAPGKERELDASITRGGSTYADSVKGRFTISRDNAKNTVYLQMNSLKPEDTAVDYCNAELYVPPYDDDYWGQGTQVTVSS”, the “polyreactivity (PSR sort gate)” value is “high polyreactivity”.

As for “QVQLVESGGGLVQAGGSLRLSCAASVSTFGRYVMGWYRQAPGKERELVAAISKNAGSTYYADSVKGRFTISRDNAKNTVYVQMNSLKPEDTAVYYCAADWRTKGYDSLGQGTQVTVSS”, the “polyreactivity (PSR sort gate)” value was “high polyreactivity”. For the sequence “QVQLVESGGGLVQAGGSLRLSCAASVSTFPQYAMGWYRQAPGKERELVAAISWSGGRTYYADSVKGRFTISRDNAKNTVYLQMNSLKPEDTAVFYCAATYPGQYGYNYWGQGTQVTVSS”, the “polyreactivity (PSR sort gate)” value was “high polyreactivity”. “QVQLVESGGGLVQAGGSLRLSCAASVSTFSYNYMGWYRQAPRKERELDAAISSGGSTKYADSVKGRFRISRDNAKNTVYLQMNSLKPEDTAVYYCIKDYPQNPLPASSYYLYDYWGQGTQVTVSS”: the “polyreactivity (PSR sort gate)” value was “high polyreactivity”.

Turning to “QVQLVESGGGLVQAGGSLRLSCAASVYAMGWYRQAPGKERELVAAITDSGSTNYADSVKGRFTISRDNAKNTVYLQMNTLKPEDTAVYYCNADPYYATGSWARLPLYQYDYWGQGTQVTVSS”, the “polyreactivity (PSR sort gate)” value is “low polyreactivity”.

For “QVQLVESGGGLVQAGGSLRLSCAASYNAMGWYRQAPGKEREFVAGITQSGGSTYYADSVKGRFTISRDNAKNTVYLQMNSLKAEDTAVYYCAKRLYKWGQGTQVTVSS”, the “polyreactivity (PSR sort gate)” value was “low polyreactivity”. For “QVQLVESGGGLVQAGGSLRLSCAATARNFYRYAMAWYRQAPGKERELVARITSAGSTDYADSVKGRFTISRDNAKNTVYLQMNSLKPEDTAVYYCAAFGFSYRTFWYDYWGQGTQVTVSS”, the “polyreactivity (PSR sort gate)” value is given as “high polyreactivity”. For the sequence “QVQLVESGGGLVQAGGSLRLSCAATGFIFRYYAMGWYSQAPGKERELVATISSGGGTHYADSVKGRYSISRDNAKNTVYLKMNSLKPEDTAVYYCNARGYRRLRTRVDYWGQGTQVTVSS”, the “polyreactivity (PSR sort gate)” value was “high polyreactivity”. With “QVQLVESGGGLVQAGGSLRLSCAATGFTFASYAMRLYRQAAGKETELVAAITWGTGTTSYADSVKGRFTISRDNAKNTVYLQMNSLKPEDTAVYYCATRFRPITYRRRYDYWGQGTQVTVSS”, the “polyreactivity (PSR sort gate)” value is on record as “low polyreactivity”. For “QVQLVESGGGLVQAGGSLRLSCAATGGTIYYYAMGWYRQAPGKERELVAAISTSGTSTYYADSVKGRFTISRDNAKNTVYLQMNSLKPEDTAVYYCAARGLRVSSRGYYWGQGTQVTVSS” the value was “high polyreactivity”.

As for “QVQLVESGGGLVQAGGSLRLSCAATGITFQPYTMGWYRQAPGKERELVASISIRGSRTYYADSVKGRFTISRDNAKNTVYLQMNSLKPEDTAVYYCNAPYNHVWAHSYWYDYWGQGTQVTVSS”, the “polyreactivity (PSR sort gate)” value is listed as “high polyreactivity”. For “QVQLVESGGGLVQAGGSLRLSCAATGITFYTYAMGWYRQAPGKERELVAAITRSGGSTYYADSVKGRFTISRDNAKNTVYLQMNSLKPEDTAVYYCAADGGYIYWEHLYYSGSDYWGQGTQVTVSS” the value was “low polyreactivity”; for “QVQLVESGGGLVQAGGSLRLSCAATGITLYGYFMGWYRQAPGKERELVAAISRSGGSTYYADSVMGRFTISRDNAKNTVYLQMNSLKPEDTAVYYCAKVPRYYYDSEFDYWGQGTQVTVSS”, “high polyreactivity”. Take “QVQLVESGGGLVQAGGSLRLSCAATGLTFWVNAMAWYRQAPGKERELVADITRSGGITNYADSVKGRFTISRDNANNTVYLQMNSLKPEDNAVYYCNADQRVDHDDFDYWGKGTQVTVSS”: the “polyreactivity (PSR sort gate)” value was “low polyreactivity”. Turning to “QVQLVESGGGLVQAGGSLRLSCAATGLTFYLNAMGWYRQAPGKEREFVAAINYSVGSTYYADSVKGRFTISRDNAKNTVYLQMNSLKPEDTAVFYCAADGYLYFKVDNEYWGQGTQVTVSS”, the “polyreactivity (PSR sort gate)” value was “low polyreactivity”. For “QVQLVESGGGLVQAGGSLRLSCAATGRIFYRNAMGWYRQAPGKERELVAAIRGSGGRTYYADSVKGRFTISRDNAKNTVYLQMNSLKPEDTAVYYCAAYGYYVEHPRGLSGPYDDDYWGQGTQVTVSS” the value was “low polyreactivity”; for “QVQLVESGGGLVQAGGSLRLSCAATGRTFRLYAMGWYRQAPGKERELVAAITRGGRTNYADSVKGRFTISRDNAKNTVYLQMNSLKPEDTAVYYCAARYRLPIPGTQYEYWGQGTQVTVSS”, “low polyreactivity”. For “QVQLVESGGGLVQAGGSLRLSCAATGRTFSSYAMGWYRQAPGKEREFLARISSSRGRTSYADSVKGRFTISRDNAKNTVYVQMNSLKPEDTAVYYCAARPPYRVGIVPLGRREYYWGRGTQVTVSS” the value was “high polyreactivity”; for “QVQLVESGGGLVQAGGSLRLSCAATGRTLPPNAMGSYRQAPGKERELVAGITWSGGSTYYADSVKGRFTISRDNAKNTVYLQMNSLKPEDTAVYYCAASRSFPGYGLYYYWGQGTQVTVSS”, “low polyreactivity”. Then “QVQLVESGGGLVQAGGSLRLSCAATGSIDSNALGWYRQAPGKERELVADITSGTPTYADSVKGRFTITRDNAKNTVYLQMNSLKPEDTAVYYCAADIPPWGGDYWGQGTQVTVSS”, with “low polyreactivity”; and “QVQLVESGGGLVQAGGSLRLSCAATGSIFRGYAMGWYRQAPGKERELVAAITSGGSTNYADSVKGRFTISRDNAKNTVYLQMNSLKPEDTAVYYCAKDLALVAPLSDYWGQGTQVTVSW”, with “low polyreactivity”. For “QVQLVESGGGLVQAGGSLRLSCAATGSIFTAYDMGWYRQAPGKERELVAAINVSAGTTYYADSVKGRFTISRDNAKNTVYLQMNSLKPEDTAVYYCATDRSPTPYTRENIYDYWGQGTQVTVSS”, the “polyreactivity (PSR sort gate)” value is “low polyreactivity”. Regarding “QVQLVESGGGLVQAGGSLRLSCAATGSIFVGYVMGWYRQAAGKERELVAAISRSGGRTYYADSVKGRFTISRDNAKNTVYLQMNSLKPEDTAVYYCAVRHRFYTAGYDYWGQGTQVTVSS”, the “polyreactivity (PSR sort gate)” value was “low polyreactivity”. For “QVQLVESGGGLVQAGGSLRLSCAATGSILVYYAMGWSRQAPGKERELVAAISSGGSTNYADSVKGRFTISRDNAKNTVYLQMNSLKPEDTAVYYCDKESGWVGAIHYDYWGQGTQVTVSS” the value was “low polyreactivity”. With “QVQLVESGGGLVQAGGSLRLSCAATGSTFAKYAMCSYRQAPGKERELVASISGSGGSTYYADSVKGRFTISRDNAKNTFYLQMNSLIPEDTAVYYSAARRYVWYYWGQGTQVTVSW”, the “polyreactivity (PSR sort gate)” value is “high polyreactivity”. On to “QVQLVESGGGLVQAGGSLRLSCAATGSTFDRYGMGWYRQAPGKERELVAAINSGDITNYADSVKGRFTISRDNAKNTVYLQMNSLKPEDTAVYYCNAGIRYFVVGRSSYDYWGQGTQVTVSS”, for which the “polyreactivity (PSR sort gate)” value is recorded as “low polyreactivity”. For the sequence “QVQLVESGGGLVQAGGSLRLSCAATGSTFIDNARGWYRQAPGKERELVAAINSSGGNTYYADSVKGRFTISRDNAKNTVYLQMNSLKPEDTAVYYCNAEFSVLYFYDYEYWGQGTQVTVSS”, the “polyreactivity (PSR sort gate)” value is listed as “low polyreactivity”.
